Experimental data from patent US20140050727A1 (MOCHIDA PHARMACEUTICAL, published 2014).

How the values were obtained:
Experiment in all cases: competitive EIA on immobilized 356(CHO) with HRP-labeled F1024 antibody
[1] = target: T1, amino acid-substituted soluble human CD14 P294H (human, UniProt P08571 20-345)
T1 construct: mature; Expressed in COS-1, purified on a 3C10 column
T1 sequence (looked up): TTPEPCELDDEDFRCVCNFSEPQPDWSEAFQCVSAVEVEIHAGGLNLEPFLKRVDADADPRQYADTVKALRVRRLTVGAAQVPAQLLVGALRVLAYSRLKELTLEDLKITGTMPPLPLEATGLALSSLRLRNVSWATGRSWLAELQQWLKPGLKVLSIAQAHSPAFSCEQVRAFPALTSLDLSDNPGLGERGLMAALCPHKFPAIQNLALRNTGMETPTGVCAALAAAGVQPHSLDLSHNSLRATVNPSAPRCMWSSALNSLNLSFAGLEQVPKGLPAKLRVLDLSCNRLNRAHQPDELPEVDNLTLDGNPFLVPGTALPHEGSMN
Procedure: (§1) A competitive experiment was conducted by the following procedure to confirm the reactivity of each soluble human amino acid-substituted CD14 with the F1024 antibody. […] After allowing to stand overnight at 4° C. and washing 3 times with the PBS containing 0.05% Tween 20, 200 μL/well of PBS⁻ containing 2% StabilGuard (SurModics, Inc.) was added to the well, and the solution was incubated at 37° C. for 30 minutes and stored at 4° C. In the meanwhile, amino acid-substituted soluble human CD14 that had been purified in Example 6-3) was diluted to 2 to 0.02 μg/mL with PBS⁻ containing 0.1% BSA. HRP-labeled F1024 antibody was diluted to 2 μg/mL with PBS⁻ containing 0.1% BSA, and the diluted HRP-labeled F1024 antibody was mixed with an equal amount of the human amino acid-substituted CD14 (25 μL+25 μL). Next, the solution was discarded from the wells of the plate having the soluble CD14 immobilized, and 50 μL/well of a mixed solution of amino acid-substituted CD14 and HRP-labeled F1024 was added. After the incubation at 37° C. for 2 hours, the plate was washed 5 times with PBS⁻ containing 0.05% Tween 20, and 50 μL/well of TMB solution (BioFX) was added to the well as the chromogenic substrate. The reaction was allowed to proceed at room temperature for 5 minutes, the reaction was terminated by adding 50 μL/well of 1M hydrochloric acid solution. Absorbance at 450 nm was measured with a plate spectrophotometer.

[2] = target: T2, amino acid-substituted soluble human CD14 P294/296A (human, UniProt P08571 20-345)
T2 construct: mature; Expressed in COS-1, purified on a 3C10 column
T2 sequence (looked up): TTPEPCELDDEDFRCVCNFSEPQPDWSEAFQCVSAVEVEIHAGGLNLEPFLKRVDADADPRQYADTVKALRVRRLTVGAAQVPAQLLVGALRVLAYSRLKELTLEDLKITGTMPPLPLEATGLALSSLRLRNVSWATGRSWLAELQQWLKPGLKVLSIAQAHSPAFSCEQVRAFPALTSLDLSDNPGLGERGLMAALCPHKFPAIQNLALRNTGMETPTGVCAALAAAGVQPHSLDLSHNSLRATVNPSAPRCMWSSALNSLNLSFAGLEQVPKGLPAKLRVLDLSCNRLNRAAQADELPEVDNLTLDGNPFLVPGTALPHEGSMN
Procedure: as §1

[3] = target: T3, amino acid-substituted soluble human CD14 Q295A (human, UniProt P08571 20-345)
T3 construct: mature; Expressed in COS-1, purified on a 3C10 column
T3 sequence (looked up): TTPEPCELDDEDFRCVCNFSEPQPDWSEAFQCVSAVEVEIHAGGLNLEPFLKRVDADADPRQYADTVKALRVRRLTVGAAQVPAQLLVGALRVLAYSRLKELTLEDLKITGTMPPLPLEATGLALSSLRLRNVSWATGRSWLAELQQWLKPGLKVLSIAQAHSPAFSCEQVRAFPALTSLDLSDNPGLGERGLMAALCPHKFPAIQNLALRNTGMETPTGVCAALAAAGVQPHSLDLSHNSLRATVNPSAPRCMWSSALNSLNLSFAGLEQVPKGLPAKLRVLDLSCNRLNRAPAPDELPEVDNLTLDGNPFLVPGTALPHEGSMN
Procedure: as §1

Measured: binding result

B1: F1024 antibody (antibody, V domains shown)
VH: QIQLVQSGPELKKPGESVKISCKASGYTFTDYAMNWVKQAPGNGLKWMGWINTQTGKPTYADDFKQRFVFSLETSASTAYLQINNLNIEDTATYFCTRSTFYYSSYIYGWYFDFWGPGTSVTVSS
VL: DIVMTQSPTSISISVGERVTMNCKASQNVGSNVDWYQQKTGQSPKLLIYKASNRYTGVPDRFTGSGSGTDFTFTISNMQAVDLAVYYCMQSNTNPPWTFGGGTKLELKRT
notes: also called antibody F1024; F1024-1-3 rat antibody
no binding (tested: 2 to 0.02 µg/mL): [1] | [2] | [3]
